This note sets out measurements from the supplement of paper PMC10126150.

± gives the standard deviation of the averaged measurements.
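Also: ATP exposure 15 min at 22 °C before imaging.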

The test system of this data set is ATP. The experiment in a line: switch fluorescence ratio, 500 uM ATP over buffer (Cy3 cluster intensity, sum of 5 cycles each) (fold (ratio)); higher = stronger signal-on switching upon ATP binding; sequences stand for … in TCGTCGGCAGCGTCAGATGTGTATAAGAGACAGTTTTTTTTTTTTTTTTTTTTTTTTT…TC. The settings on record: aptamer strand: ATP DNA aptamer (quencher-CACCTGGGGGAGTATTGCGGAGGAAGG + anchor), 100 nM annealed; ATP concentration: 500 uM. Put shortly:
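For every switch-domain sequence, the fluorescence ratio is the mean of per-cluster values, each being summed target-cycle Cy3 intensity over summed buffer-cycle Cy3 intensity. Clusters outside 100-1000 RFU were excluded. On a modified Illumina MiSeq flow-cell, the Cy3-labelled switching-strand clusters were annealed to 100 nM quencher-labelled ATP aptamer, imaged in selection buffer and then after 15 min with 500 uM ATP at 22 °C. Five such cycles were run, with NaOH stripping and re-annealing between them.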
As for ACCCAGCGCT, the switch fluorescence ratio is 1.04 ± 0.023.
As for TAGGGGAATC, the figure is 0.992 ± 0.02.
As for ATGTGGGGGT, the figure is 0.994 ± 0.029; as for TGACCATTGC, 1.093 ± 0.0059; as for CGAAGCGCCC, 4.36 ± 3.
For GCTTTTGGCC the value was 0.971 ± 0.02; for GTACGGGGGA, 1.002 ± 0.0056.
For GATAATCGAG, the switch fluorescence ratio was determined as 1.02 ± 0.018.
For AGGGGGGCGT the value was 1.01 ± 0.016; for GCTAACTAGG, 1.038 ± 0.0087; for TTTCTTTGTT, 1.04 ± 0.096.
As for ATGCATGTGC, the figure is 0.983 ± 0.01; as for TTTGAAAGTG, 0.999 ± 0.015.
Regarding TGGAACGGAG, the switch fluorescence ratio came to 0.98 ± 0.021.
As for GCGATCAGAC, the figure is 1.15 ± 0.015; as for GCTAGTGGGG, 0.999 ± 0.018.
Turning to AGCAAATTCT, the switch fluorescence ratio worked out at 1.16 ± 0.072.
As for AAGATGGGGA, the figure is 1.01 ± 0.016.
For AGACGGGGGC the value was 0.978 ± 0.12.
As for TTTCTTCCAT, the figure is 1.05 ± 0.1.
As to TTTTGGTCAT, the switch fluorescence ratio turned out to be 0.962 ± 0.053.
As for AAAGTGATTG, the figure is 0.9723 ± 0.0028; as for CGCCGATTAA, 1.03 ± 0.062.
With TTTGAGTTGG, the switch fluorescence ratio was found to be 1 ± 0.02.
As for AGGGTAGGGG, the figure is 0.994 ± 0.03.
As for ATGCGGGTTT, the figure is 1.02 ± 0.018; as for CTTGCCGCGC, 1.13 ± 0.017.
AGGGGGAATG: the switch fluorescence ratio was found to be 1 ± 0.044.
As for AGCGGTTCGC, the figure is 0.9931 ± 0.0056; as for GTGGTGGGGT, 1.01 ± 0.028.
Turning to GGAGGCTAGC, the switch fluorescence ratio was determined as 1.01 ± 0.054.
For the sequence GGTATGGGGA, the switch fluorescence ratio turned out to be 1 ± 0.022.
For CTTTGGCTGA the value was 0.998 ± 0.025; for GGGTGTTAGT, 1 ± 0.016; for TCCTGGTGCG, 1.13 ± 0.024.
For ACATATTGTG the value was 1.03 ± 0.062.
As for GATGTAAACG, the figure is 1.02 ± 0.026; as for ATGCACTGGG, 1.08 ± 0.05.
GAAAAAGGGG: the switch fluorescence ratio was 1.01 ± 0.019.
For TTTGGAGACT the value was 1.03 ± 0.02.
Take TTTTTTTATA: the switch fluorescence ratio came out at 0.991 ± 0.024.
As for CGCTTATGCA, the figure is 1.02 ± 0.02; as for CAGGAGGGCA, 1.042 ± 0.0049; as for TTCAAGTGGG, 0.9848 ± 0.0028.
For TTTTTTGCCC the value was 1.02 ± 0.048.
For CCTGTGGTGC the value was 1.342 ± 0.0072; for TTGGATGGTT, 1.01 ± 0.03.
In the case of GGGTACTGTG, the switch fluorescence ratio was determined as 0.971 ± 0.015.
As for CGGGGGTGTA, the figure is 0.995 ± 0.026; as for ATAGGAAGGA, 1.04 ± 0.056; as for TGCGTGTTGA, 1.04 ± 0.0081.
As for TATGTATATA, the figure is 1.01 ± 0.079; as for TTGCGAGGTC, 0.985 ± 0.037; as for GAGGAAATCA, 0.9877 ± 0.008.
As for TCTTGGGGAC, the figure is 1.14 ± 0.2.
Take CGTCGAGGGA: the switch fluorescence ratio stood at 1.1 ± 0.12.
For the sequence TCAAAAGGGA, the switch fluorescence ratio turned out to be 1.02 ± 0.041.
As for CCCGGAGGCC, the figure is 0.961 ± 0.034; as for AGGAAGTTAG, 0.961 ± 0.022; as for CGTTTGGGGG, 0.987 ± 0.021.
As for CGGTACCGTG, the figure is 0.9844 ± 0.007; as for TATTTTGGGC, 0.997 ± 0.046; as for TGGTTATTTT, 0.998 ± 0.036.
For TATAATCGA the value was 1.03 ± 0.067; for GAATAGGGGC, 0.965 ± 0.01.
As for TAGAAACGAG, the switch fluorescence ratio is 1.02 ± 0.087.
For TTTTGGAATT the value was 1.04 ± 0.16; for TGGTCTTTTA, 0.9852 ± 0.0022.
For AGTTATTTGG the value was 1 ± 0.0047; for TCGGGGCCGA, 0.969 ± 0.01; for GCCTTTCAAT, 1.024 ± 0.0015.
For TGAGCTAGCT the value was 1.01 ± 0.033; for GTTTTTTTGG, 1 ± 0.018; for ATGCGAATAT, 0.989 ± 0.015.
Regarding TTGCCTAACT, the switch fluorescence ratio was 1.04 ± 0.028.
Consider GCTATGTGTA, for which the switch fluorescence ratio came out at 0.9748 ± 0.0051.
For TAAGAACATT the value was 1.03 ± 0.1.
For TTTAGGGAAA the value was 0.961 ± 0.033; for TTTGGCATTA, 1.09 ± 0.1; for AACCTATGGT, 0.978 ± 0.0042.
As for CAGTGATTTA, the figure is 0.981 ± 0.019; as for TGTAATCAAA, 1 ± 0.022.
For the sequence TAATTGGATG, the switch fluorescence ratio is 0.992 ± 0.027.
As for GGATAGAGGA, the figure is 1.01 ± 0.02; as for ATTGATCTCG, 1.04 ± 0.083.
As for GATTCTCGGG, the switch fluorescence ratio was 1.01 ± 0.016.
As for GCTTAAGTTA, the figure is 1 ± 0.057; as for TAATCGTGGA, 1.03 ± 0.022.
As for CGTTTGGTGG, the figure is 1.01 ± 0.032; as for GCCTTTGGCT, 0.996 ± 0.049.
For TTGGGTTGTT the value was 0.986 ± 0.033; for TTTCTGTACG, 1.1 ± 0.068.
Take GGAATTGCA: the switch fluorescence ratio was found to be 0.958 ± 0.022.
As for CGTGTGCCGA, the figure is 1.01 ± 0.057; as for CTGCGGCTGT, 1.02 ± 0.0053.
As for AAGTGGGTTA, the figure is 1.02 ± 0.032; as for TTTGCGAGAG, 1.01 ± 0.045; as for TTGGAGGGTT, 0.992 ± 0.017.
For AAGTGATGCT the value was 1.03 ± 0.087.
As to GAGGGACCGT, the switch fluorescence ratio turned out to be 0.995 ± 0.025.
As for TAATATTAAC, the figure is 1.02 ± 0.03.
As for TTAAAAAAGG, the figure is 1.01 ± 0.087; as for TTATGAAATG, 1 ± 0.025; as for GTTTAATTGC, 0.995 ± 0.049.
As for TCGTAAGTAA, the figure is 1.04 ± 0.0094; as for TAAATGTCAT, 0.998 ± 0.027; as for TTCAGCTACA, 1.02 ± 0.029.
Take AGCTTCAGTC: the switch fluorescence ratio stood at 1 ± 0.03.
Consider CTAAATTGCC, for which the switch fluorescence ratio was 0.9991 ± 0.0056.
In the case of ATTTGTGTGG, the switch fluorescence ratio is 0.973 ± 0.021.
As for GCGGGCTGGA, the figure is 1.01 ± 0.044.
As for ATCAGATAGG, the figure is 1 ± 0.026; as for TTGTGGGAGG, 0.997 ± 0.033; as for AACGGAGAGC, 1.034 ± 0.01.
As for TAGCGGAAAA, the switch fluorescence ratio came to 1.018 ± 0.0026.
As for CAGAGATTTA, the figure is 0.995 ± 0.024; as for AGGGGTGGAG, 1.02 ± 0.006; as for ATAAGTTGCT, 0.968 ± 0.024.
Regarding ATTAGATGTT, the switch fluorescence ratio was 0.9635 ± 0.0029.
For ACAAGCTGAC the value was 1.27 ± 0.15.
